The record followed here is patent US12644128B2, “Method for producing HSL protein having catalytic activity for 2-oxoglutaric acid-dependently oxidizing 4-HPPD inhibitor” (National Agriculture and Food Research Organization, priority 2017, dated 2026).

“Also recorded” adds a separate entry of the source.

Experiment [1] can be described thus: 4-HPPD inhibitor decomposition activity by HPLC, substrate BBC-OH. The format is biochemical. The conditions noted are these: for BBC-OH decomposition activity: cell-free synthesized protein, FeCl2, ascorbic acid, 2-oxoglutarate, 30° C. for 3 hours, HPLC. An excerpt:
(§1) Then, the decomposition reaction of a 4-HPPD inhibitor was examined in the presence of divalent iron ions, 2-oxoglutarate, and molecular oxygen in a test tube by a method described later using the HIS1 protein prepared by this cell-free protein synthesis system.
(§2) Here, in commercially-available wheat germ extracts, dithiothreitol (DTT) is used as a reducing agent and a protein synthesizing reaction liquid also contains DTT. It was confirmed in advance by liquid chromatography that under the coexistence of divalent iron ions and ascorbic acid, which is a stabilizer for the divalent iron ions, DTT generated radical compounds and secondarily affected the enzyme reaction of HIS1 proteins. For this reason, in the present Example, an unreported protein synthesizing reaction system using Tris (2-carboxyethyl) phosphine (TCEP) as a reducing agent instead of DTT was newly constructed, with which the synthesis of HIS1 proteins and the like was conducted to examine the 4-HPPD inhibitor decomposition activity of these. The decomposition activity was analyzed on the reaction liquid of the protein and the 4-HPPD inhibitor using a high-performance liquid chromatography (mobile phase; 0.5% acetic acid water:acetonitrile=65:35, flow rate; 1 mL/min, feeding; isocratic, column; CAPCELL PAK ADME S5).
Then, the amounts of the synthesized proteins obtained in Examples 1 to 4 as described above were estimated as described below, followed by the analysis on the 4-HPPD inhibitor decomposition activities.
Cell-free protein synthesis was conducted without adding [^14C]-Leucine Leucine under the same conditions as those in the estimation of the synthesized amount to estimate the protein concentration of this translation reaction liquid from the above-described estimation. Then, 100 μl of the translation reaction liquid was subjected to buffer exchange to a basic translation buffer (30 mM HEPES-KOH (pH=7.8), 100 mM KOAc) by using the illustra MicroSpin G-25 column (manufactured by GE Healthcare). The amounts of the solution before and after the buffer exchange were measured and the estimated protein concentration was corrected.
An enzyme reaction liquid was prepared by mixing 250 mM of HEPES-KOH (pH 7.0) with a mixture liquid, which contained 0.25 mM of FeCl2, 1.5 mM of ascorbic acid, 1.5 mM of 2-oxoglutarate, and 0.75 mM of a substrate, and a translation reaction liquid, which contained a synthesized enzyme protein, in a proportion of 40% and 60%, respectively. After incubation at 30° C. for 3 hours, 100% methanol in the same amount as the enzyme reaction liquid was added and sufficiently mixed, followed by being left to stand for 5 minutes on ice. This was subjected to centrifuge separation (20, 400 g, 20 minutes, 4° C.) and the supernatant was passed through Cosmonice Filter W (0.45 μm) (manufactured by Nacalai Tesque, Inc.) to obtain a sample for high-performance liquid chromatography. The analysis on the substrate and the product before and after the enzyme reaction was conducted by loading a column_Pro C18 (150×4.6 mm I.D.) (manufactured by YMC Co., Ltd.) on a high-performance liquid chromatography device_ELITE LaChrom L-2000 series (manufactured by Hitachi, Ltd.). Elution was conducted at a flow speed of 1 mL/min and a column temperature of 40° C. under solvent conditions of acetonitrile:water (1% acetic acid)=55:45 or 50:50 (BBC-OH), acetonitrile:water (1% acetic acid)=45:55 (Sulcotrione), acetonitrile:water (1% acetic acid)=45:55 (Mesotrione), acetonitrile:water (1% acetic acid)=55:45 or 50:50 (tefryltrone), and acetonitrile:water (1% acetic acid)=55:45 or 50:50 (Tembotrione), respectively, and the compound was detected at an ultraviolet wavelength of 286 nm.
(§3) Note that the 5-point scale of the decomposition activity in each of FIGS. 12 to 17 is based on a relative value of the degree of decrease in a substrate-derived peak area detected by HPLC where the degree of decrease in the HIS1 protein was designated by 5. […]

A short description of experiment [2]: 4-HPPD inhibitor decomposition activity by HPLC, substrate tefuryltrione. The class given is biochemical. The conditions noted are these: for tefuryltrione decomposition activity: cell-free synthesized protein, FeCl2, ascorbic acid, 2-oxoglutarate, 30° C. for 3 hours, HPLC.
Excerpt: as §1
as §2, with “S5). […]” for “S5).”
(§4) Cell-free protein synthesis was conducted without adding [^14C]-Leucine Leucine under the same conditions as those in the estimation of the synthesized amount to estimate the protein concentration of this translation reaction liquid from the above-described estimation. […] The amounts of the solution before and after the buffer exchange were measured and the estimated protein concentration was corrected. […]
as §3

Experiment [3] in a line: 4-HPPD inhibitor decomposition activity by HPLC, substrate sulcotrione. The format is biochemical. To be noted: for sulcotrione decomposition activity: cell-free synthesized protein, FeCl2, ascorbic acid, 2-oxoglutarate, 30° C. for 3 hours, HPLC.
Excerpt: as §1
as §2, with “S5). […]” for “S5).”
as §4, §3

The nature of experiment [4]: 4-HPPD inhibitor decomposition activity by HPLC, substrate mesotrione. The class given is biochemical. The conditions noted are these: cell-free synthesized protein, not shown in the figures. As to the method: (§5) Then, the amounts of the synthesized proteins obtained in Examples 1 to 4 as described above were estimated as described below, followed by the analysis on the 4-HPPD inhibitor decomposition activities. Cell-free protein synthesis was conducted without adding [^14C]-Leucine Leucine under the same conditions as those in the estimation of the synthesized amount to estimate the protein concentration of this translation reaction liquid from the above-described estimation. Then, 100 μl of the translation reaction liquid was subjected to buffer exchange to a basic translation buffer (30 mM HEPES-KOH (pH=7.8), 100 mM KOAc) by using the illustra MicroSpin G-25 column (manufactured by GE Healthcare). The amounts of the solution before and after the buffer exchange were measured and the estimated protein concentration was corrected. […] Elution was conducted at a flow speed of 1 mL/min and a column temperature of 40° C. under solvent conditions of acetonitrile:water (1% acetic acid)=55:45 or 50:50 (BBC-OH), acetonitrile:water (1% acetic acid)=45:55 (Sulcotrione), acetonitrile:water (1% acetic acid)=45:55 (Mesotrione), acetonitrile:water (1% acetic acid)=55:45 or 50:50 (tefryltrone), and acetonitrile:water (1% acetic acid)=55:45 or 50:50 (Tembotrione), respectively, and the compound was detected at an ultraviolet wavelength of 286 nm.

Experiment [5] can be described thus: 4-HPPD inhibitor decomposition activity by HPLC, substrate tembotrione. The format is biochemical. To be noted: cell-free synthesized protein, not shown in the figures. As for the experimental part:
as §5

Experiment [6] relates to benzobicyclon-susceptible cultivar "Yamadawara". The experiment can be described thus: Resistance to BBC of rice expressing OsHSL1 or its F140H mutant. The class given is in vivo. The conditions noted are these: T1 seeds, MS medium containing 0.25 μM BBC, 30° C., bright place, 8 days. As for the experimental part:
Next, the efficacy of the F140H mutation was confirmed using rice. Specifically, first, an mHSL1 gene obtained by modifying phenylalanine at position 140 in a rice HSL1 cDNA gene to histidine was prepared. Subsequently, the mutated gene or an HSL1 gene in which the mutation was not introduced was linked to downstream of the 35S promoter and was cloned together with a hygromycin-resistance gene expression cassette in the binary vector. Then, these vectors were each introduced into a benzobicyclon-susceptible cultivar “Yamadawara” by an agrobacterium method and recombinant rice was grown.
The recombinant rice (T1) seeds thus produced and the seeds of the original cultivar “Yamadawara” were tested and seeded on an MS medium containing 0.25 μM BBC in a sterile manner and grown at 30° C. in a bright place for 8 days.

B1: OsHSL1 protein: rice-derived HSL protein, typically a protein having an amino acid sequence of SEQ ID NO: 4 (protein, listed as Oryza sativa)
chain: MADESWRTPAIVQELAAAGVEEPPSRYVLGEKDRSDELVAAELPEPIPVVDLSRLAGADEAAKLRAALQNWGFFLLTNHGVETSLMDDVLNLAREFFNQPIERKRKFSNLIDGKNFQVEGYGTDRVVTQDQILDWSDRLFLRVEPKEERNLAFWPDHPESFRDVLNEYASRTKRIRDDIVQAMSKLLGLDEDYFFDRLNKAPALARFNYYPPCPRPDLVFGVRPHSDGSLFTILLVDEDVGGLQIQRDGKWYNVQVTPNTLLINLGDTMEVLCNGIFRSPVHRVVTNAERERISLAMFYSVNDEKDIGPAAGLLDENRPARYRKVSVGEFRAGIIGKFSRRERYIDSLKI
With B1, the BBC-OH decomposition activity entry in experiment [1] is given as “hardly observed; also recorded: only very weak decomposition activity”. For the same molecule, in experiment [2], the tefuryltrione decomposition activity entry is recorded as “lower than that of the HIS1 protein; also recorded: had the decomposition activity, which was less effective than that of the HIS1 protein”. The sulcotrione decomposition activity result in experiment [3] is on record as “hardly observed; also recorded: only very weak decomposition activity”. Also, the mesotrione decomposition activity result in experiment [4] is listed as “only very weak decomposition activity”. For the same molecule, the tembotrione decomposition activity result in experiment [5] is “only very weak decomposition activity”. Also, in experiment [6], the “BBC resistance (growth condition)” value is on record as “whitened”.

B2: HIS1 protein: rice 2-oxoglutarate-dependent dioxygenase, typically a protein having an amino acid sequence of SEQ ID NO: 2 (protein, listed as Oryza sativa)
chain: MADESWRAPAIVQELAAAGVEEPPSRYLLREKDRSDVKLVAAELPEPLPVVDLSRLDGAEEATKLRVALQNWGFFLLTNHGVEASLMDSVMNLSREFFNQPIERKQKFSNLIDGKNFQIQGYGTDRVVTQDQILDWSDRLHLRVEPKEEQDLAFWPDHPESFRDVLNKYASGTKRIRDDIIQAMAKLLELDEDYFLDRLNEAPAFARFNYYPPCPRPDLVFGIRPHSDGTLLTILLVDKDVSGLQVQRDGKWSNVEATPHTLLINLGDTMEVMCNGIFRSPVHRVVTNAEKERISLAMLYSVNDEKDIEPAAGLLDENRPARYRKVSVEEFRAGIFGKFSRGERYIDSLRI
For the molecule B2, the BBC-OH decomposition activity entry in experiment [1] was “high decomposition activity”. In experiment [1] (mass analysis), the “modification product of BBC-OH by mass analysis” value is on record as “converted into a product with one oxygen atom added”. Moreover, the “cofactor dependence of the modification of BBC-OH” value in experiment [1] (not shown) was “only in the presence of divalent iron ions and 2-oxoglutarate”. Also, the tefuryltrione decomposition activity result in experiment [2] was “high decomposition activity”. Also, the “modification product of tefuryltrione by mass analysis” value in experiment [2] (mass analysis) was “converted into a product with one oxygen atom added”. Moreover, the sulcotrione decomposition activity result in experiment [3] is “high decomposition activity”. In addition, the “modification product of sulcotrione by mass analysis” value in experiment [3] (mass analysis) was “converted into a product with one oxygen atom added”.
